Assay results reported in PMC6004480 (Proceedings of the National Academy of Sciences of the …, 2018).

T1: MTR4, full length (human, UniProt P42285 1-1042)
T1 sequence: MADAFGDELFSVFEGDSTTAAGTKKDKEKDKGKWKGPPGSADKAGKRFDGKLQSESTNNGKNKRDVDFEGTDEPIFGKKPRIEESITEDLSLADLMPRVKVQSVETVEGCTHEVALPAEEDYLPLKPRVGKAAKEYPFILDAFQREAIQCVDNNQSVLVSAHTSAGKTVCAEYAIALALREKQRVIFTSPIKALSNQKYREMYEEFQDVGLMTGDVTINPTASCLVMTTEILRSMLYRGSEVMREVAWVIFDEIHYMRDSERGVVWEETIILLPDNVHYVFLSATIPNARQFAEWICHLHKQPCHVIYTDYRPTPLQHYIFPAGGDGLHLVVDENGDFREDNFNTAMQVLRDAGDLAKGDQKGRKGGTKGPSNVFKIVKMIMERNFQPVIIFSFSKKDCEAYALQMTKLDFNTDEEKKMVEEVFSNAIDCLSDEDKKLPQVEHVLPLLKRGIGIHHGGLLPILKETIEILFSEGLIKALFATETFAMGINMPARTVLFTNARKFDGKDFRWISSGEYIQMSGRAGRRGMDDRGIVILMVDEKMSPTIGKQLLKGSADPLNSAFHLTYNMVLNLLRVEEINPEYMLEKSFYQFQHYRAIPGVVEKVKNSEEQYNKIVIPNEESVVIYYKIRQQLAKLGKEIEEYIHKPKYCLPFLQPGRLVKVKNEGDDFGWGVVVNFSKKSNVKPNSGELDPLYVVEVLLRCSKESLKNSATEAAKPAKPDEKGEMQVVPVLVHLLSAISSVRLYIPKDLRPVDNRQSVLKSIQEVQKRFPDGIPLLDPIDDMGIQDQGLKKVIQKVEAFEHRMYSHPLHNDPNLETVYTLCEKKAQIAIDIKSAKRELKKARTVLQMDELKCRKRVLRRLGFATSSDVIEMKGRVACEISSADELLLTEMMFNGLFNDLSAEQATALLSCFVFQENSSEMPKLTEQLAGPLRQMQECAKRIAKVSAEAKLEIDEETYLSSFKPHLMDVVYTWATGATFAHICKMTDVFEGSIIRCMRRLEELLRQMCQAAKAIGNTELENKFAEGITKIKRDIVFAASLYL


Experiments:
MTR4, full length [1] = target: T1, MTR4, full length; experiment: pull-down
MTR4, full length [2] = target: T1, MTR4, full length; experiment: SEC
MTR4;ZCCHC8core;RBM7core = MTR4;ZCCHC8core;RBM7core (Homo sapiens?;Homo sapiens?;Homo …, UniProt P42285;Q6NZY4;Q9Y580 1-1042;1-707;6-94, |del416-507|); experiment: EMSA

Row | Binder | binding result (MTR4, full length [1]) | binding result (MTR4;ZCCHC8core;RBM7core) | other results
1 | Copurified complex of Strep-RBM7core and full-length ZCCHC8 (Z1) (complex) chain 1: AEADRTLFVGNLETKVTEELLFELFHQAGPVIKVKIPKDKDGKPKQFAFVNFKHEVSVPYAMNLLNGIKLYGRPIKIQFRSGSSHAPQD chain 2: MAAEVYFGDLELFEPFDHPEESIPKPVHTRFKDDDGDEEDENGVGDAELRERLRQCEETIEQLRAENQELKRKLNILTRPSGILVNDTKLDGPILQILFMNNAISKQYHQEIEEFVSNLVKRFEEQQKNDVEKTSFNLLPQPSSIVLEEDHKVEESCAIKNNKEAFSVVGSVLYFTNFCLDKLGQPLLNENPQLSEGWEIPKYHQVFSHIVSLEGQEIQVKAKRPKPHCFNCGSEEHQMKDCPMPRNAARISEKRKEYMDACGEANNQNFQQRYHAEEVEERFGRFKPGVISEELQDALGVTDKSLPPFIYRMRQLGYPPGWLKEAELENSGLALYDGKDGTDGETEVGEIQQNKSVTYDLSKLVNYPGFNISTPRGIPDEWRIFGSIPMQACQQKDVFANYLTSNFQAPGVKSGNKRSSSHSSPGSPKKQKNESNSAGSPADMELDSDMEVPHGSQSSESFQFQPPLPPDTPPLPRGTPPPVFTPPLPKGTPPLTPSDSPQTRTASGAVDEDALTLEELEEQQRRIWAALEQAESVNSDSDVPVDTPLTGNSVASSPCPNELDLPVPEGKTSEKQTLDEPEVPEIFTKKSEAGHASSPDSEVTSLCQKEKAELAPVNTEGALLDNGSVVPNCDISNGGSQKLFPADTSPSTATKIHSPIPDMSKFATGITPFEFENMAESTGMYLRIRSLLKNSPRNQQKNKKASE | binds |  | 
2 | ZCCHC8, full length (Z1) (natural protein) MAAEVYFGDLELFEPFDHPEESIPKPVHTRFKDDDGDEEDENGVGDAELRERLRQCEETIEQLRAENQELKRKLNILTRPSGILVNDTKLDGPILQILFMNNAISKQYHQEIEEFVSNLVKRFEEQQKNDVEKTSFNLLPQPSSIVLEEDHKVEESCAIKNNKEAFSVVGSVLYFTNFCLDKLGQPLLNENPQLSEGWEIPKYHQVFSHIVSLEGQEIQVKAKRPKPHCFNCGSEEHQMKDCPMPRNAARISEKRKEYMDACGEANNQNFQQRYHAEEVEERFGRFKPGVISEELQDALGVTDKSLPPFIYRMRQLGYPPGWLKEAELENSGLALYDGKDGTDGETEVGEIQQNKSVTYDLSKLVNYPGFNISTPRGIPDEWRIFGSIPMQACQQKDVFANYLTSNFQAPGVKSGNKRSSSHSSPGSPKKQKNESNSAGSPADMELDSDMEVPHGSQSSESFQFQPPLPPDTPPLPRGTPPPVFTPPLPKGTPPLTPSDSPQTRTASGAVDEDALTLEELEEQQRRIWAALEQAESVNSDSDVPVDTPLTGNSVASSPCPNELDLPVPEGKTSEKQTLDEPEVPEIFTKKSEAGHASSPDSEVTSLCQKEKAELAPVNTEGALLDNGSVVPNCDISNGGSQKLFPADTSPSTATKIHSPIPDMSKFATGITPFEFENMAESTGMYLRIRSLLKNSPRNQQKNKKASE |  |  | binding result (MTR4, full length [2]): binds
3 | Copurified complex of Strep-RBM7core and ZCCHC8 1-327 (Z2) (complex) chain 1: AEADRTLFVGNLETKVTEELLFELFHQAGPVIKVKIPKDKDGKPKQFAFVNFKHEVSVPYAMNLLNGIKLYGRPIKIQFRSGSSHAPQD chain 2: MAAEVYFGDLELFEPFDHPEESIPKPVHTRFKDDDGDEEDENGVGDAELRERLRQCEETIEQLRAENQELKRKLNILTRPSGILVNDTKLDGPILQILFMNNAISKQYHQEIEEFVSNLVKRFEEQQKNDVEKTSFNLLPQPSSIVLEEDHKVEESCAIKNNKEAFSVVGSVLYFTNFCLDKLGQPLLNENPQLSEGWEIPKYHQVFSHIVSLEGQEIQVKAKRPKPHCFNCGSEEHQMKDCPMPRNAARISEKRKEYMDACGEANNQNFQQRYHAEEVEERFGRFKPGVISEELQDALGVTDKSLPPFIYRMRQLGYPPGWLKEAE | binds |  | 
4 | ZCCHC8 1-327 (Z2) (domain or fragment) MAAEVYFGDLELFEPFDHPEESIPKPVHTRFKDDDGDEEDENGVGDAELRERLRQCEETIEQLRAENQELKRKLNILTRPSGILVNDTKLDGPILQILFMNNAISKQYHQEIEEFVSNLVKRFEEQQKNDVEKTSFNLLPQPSSIVLEEDHKVEESCAIKNNKEAFSVVGSVLYFTNFCLDKLGQPLLNENPQLSEGWEIPKYHQVFSHIVSLEGQEIQVKAKRPKPHCFNCGSEEHQMKDCPMPRNAARISEKRKEYMDACGEANNQNFQQRYHAEEVEERFGRFKPGVISEELQDALGVTDKSLPPFIYRMRQLGYPPGWLKEAE | binds |  | 
5 | Copurified complex of Strep-RBM7core and ZCCHC8 283-415 + 508-707 (Z4) (complex) chain 1: AEADRTLFVGNLETKVTEELLFELFHQAGPVIKVKIPKDKDGKPKQFAFVNFKHEVSVPYAMNLLNGIKLYGRPIKIQFRSGSSHAPQD chain 2: FGRFKPGVISEELQDALGVTDKSLPPFIYRMRQLGYPPGWLKEAELENSGLALYDGKDGTDGETEVGEIQQNKSVTYDLSKLVNYPGFNISTPRGIPDEWRIFGSIPMQACQQKDVFANYLTSNFQAPGVKSGGAVDEDALTLEELEEQQRRIWAALEQAESVNSDSDVPVDTPLTGNSVASSPCPNELDLPVPEGKTSEKQTLDEPEVPEIFTKKSEAGHASSPDSEVTSLCQKEKAELAPVNTEGALLDNGSVVPNCDISNGGSQKLFPADTSPSTATKIHSPIPDMSKFATGITPFEFENMAESTGMYLRIRSLLKNSPRNQQKNKKASE | binds |  | 
6 | ZCCHC8 283-415 + 508-707 (Z4) (domain or fragment) FGRFKPGVISEELQDALGVTDKSLPPFIYRMRQLGYPPGWLKEAELENSGLALYDGKDGTDGETEVGEIQQNKSVTYDLSKLVNYPGFNISTPRGIPDEWRIFGSIPMQACQQKDVFANYLTSNFQAPGVKSGGAVDEDALTLEELEEQQRRIWAALEQAESVNSDSDVPVDTPLTGNSVASSPCPNELDLPVPEGKTSEKQTLDEPEVPEIFTKKSEAGHASSPDSEVTSLCQKEKAELAPVNTEGALLDNGSVVPNCDISNGGSQKLFPADTSPSTATKIHSPIPDMSKFATGITPFEFENMAESTGMYLRIRSLLKNSPRNQQKNKKASE | binds |  | 
7 | PIPDMSKFATGITPFEFENMAESTGMYLRIRSLLKNSPRNQQKNKKASE (domain or fragment) [Strep-tagged ZCCHC8 C-terminal domain (Z5; 659-707)] | binds |  | 
8 | Substrate I (dsRNA) RNA 1: AGUGCGCUGUAUCUUCAAGGCCACU RNA 2: AGUGGCCUUGAAGAUACAGCGCACUUUUUUAAAAAAAAAAAAAAA |  | binds | 
9 | Substrate II (dsRNA) RNA 1: AGUGCGCUGUAUCUUCAAGGCCACU RNA 2: AGUGGCCUUGAAGAUACAGCGCACUAAAAAUUUUUAAAAAAAAAA |  | binds | 
10 | Substrate III (dsRNA) RNA 1: AGUGCGCUGUAUCUUCAAGGCCACU RNA 2: AGUGGCCUUGAAGAUACAGCGCACUAAAAAAAAAAUUUUUAAAAA |  | binds | 
